From patent US9617326B2, “RTRAIL mutant and monomethyl auristatin E conjugate thereof” (Zhejiang University, priority 2012, dated 2017) come the findings set out here.

In this data set the test system is HEK293 cells. The data set is described as follows: In vitro killing/toxicity (CCK-8) on normal HEK293 cells. Particulars: 32-1000 ng/mL, 96 hours. Type of data set: cell-based. The text has this: 4 types of cells were selected to measure in vitro anti-tumor activity of the rTRAIL mutant and the MMAE conjugate: TRAIL sensitive type (NCI-H460), TRAIL insensitive type (Hela), TRAIL resistant type (MCF-7) and normal cells (HEK293). All of these 4 types of cells had TRAIL death receptor on their surfaces.
Hereinafter, TRAIL sensitive type NCI-H460 cell was taken as an example to give detailed description of the test procedure, including the following steps:
(1) Digesting the NCI-H460 cells into individual cells, followed by diluting to 1×10^4 cells/mL, spreading the cells on 96-well plate (100 μL for each well), and culturing the cells for 24 hours under normal condition.
(2) Diluting N109C, N109C-vcMMAE and S96C-vcMMAE with culture medium respectively, and adding them into the cell plate with final concentrations of 32, 63, 125, 250, 500, 1000 ng/mL for serving as the test groups, while using standard TRAIL (114-281) as the positive control group, using the buffer (used for dissolving the test sample, diluted with the culture medium in a same manner) as the negative control group, and using the culture medium (without adding any solution) as the blank control group. All the control groups and test groups were tested in triplicate. […]

With “TRAIL (114-281): standard TRAIL (114-281) used as the positive control group”, the “toxicity to normal cells” value is “considerably low toxicity”.
